Results: patent US20110166074A1

What was measured:
[1] = biological target: mannose 6-phosphate receptor (MPR) on cultured rat cerebellar granule neurons (rat) (UniProt P70580); assay: cell-based or functional assay
[2] = biological target: Cy3-labeled Alzheimer's amyloid-beta fibrils

Chain of UniProt P70580 (P70580 whole entry): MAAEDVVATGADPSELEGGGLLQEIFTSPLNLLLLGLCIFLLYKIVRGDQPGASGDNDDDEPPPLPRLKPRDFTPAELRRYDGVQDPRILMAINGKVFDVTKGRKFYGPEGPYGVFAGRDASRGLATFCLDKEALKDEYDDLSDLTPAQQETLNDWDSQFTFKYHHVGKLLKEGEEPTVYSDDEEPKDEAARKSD

B1: recombinant human CLN2 protein produced in CHO cells (proCLN2, 65 KDa precursor) (protein)
chain: SYSPEPDQRRTLPPGWVSLGRADPEEELSLTFALRQQNVERLSELVQAVSDPSSPQYGKYLTLENVADLVRPSPLTLHTVQKWLLAAGAQKCHSVITQDFLTCWLSIRQAELLLPGAEFHHYVGGPTETHVVRSPHPYQLPQALAPHVDFVGGLHRFPPTSSLRQRPEPQVTGTVGLHLGVTPSVIRKRYNLTSQDVGSGTSNNSQACAQFLEQYFHDSDLAQFMRLFGGNFAHQASVARVVGQQGRGRAGIEASLDVQYLMSAGANISTWVYSSPGRHEGQEPFLQWLMLLSNESALPHVHTVSYGDDEDSLSSAYIQRVNTELMKAAARGLTLLFASGDSGAGCWSVSGRHQFRPTFPASSPYVTTVGGTSFQEPFLITNEIVDYISGGGFSNVFPRPSYQEEAVTKFLSSSPHLPPSSYFNASGRAYPDVAALSDGYWVVSNRVPIPWVSGTSASTPVFGGILSLINEHRILSGRPPLGFLNPRLYQQHGAGLFDVTRGCHESCLDEEVEGQGFCSGPGWDPVTGWGTPNFPALLKTLLNP
EC50 of M6P inhibitable uptake into rat cerebellar granule neurons (intracellular TPP1 activity) [1]: 6 to 8 nM | percent of Cy3-fAβ degraded in microglia at 12.5 nM CLN2 (against mannose-6-phosphate control) [2]: insignificant (2%) degradation at 12.5 nM | percent of Cy3-fAβ degraded in microglia at 25 nM CLN2 (against mannose-6-phosphate control) [2]: 19% at 25 nM | percent of Cy3-fAβ degraded in microglia at 50 nM CLN2 (against mannose-6-phosphate control) [2]: 22% degradation at 50 nM CLN2 | percent of Cy3-fAβ degraded in microglia at 100 nM CLN2 (against mannose-6-phosphate control) [2]: -30% degradation of the Cy3-fAβ when 100 nM of CLN2 was added to microglia
